According to patent publication US20220242939A1 (BIOARCTIC, published 2022):
Where a chain is given by its changes, count along the chain named. Values belong to the binder of their own block, whether it stands above or below them. Non-standard residues stand in square brackets, D forms with d. No end group written: not given here. Ahx = NCCCCCC(=O)O

Tests used:
[1] = biological target: T1, full-length ApoE in human brain extract from Alzheimer's disease patients (human, UniProt P02649 19-317); assay: Western blot of AD brain RIPA 2% SDS extract; hybridoma supernatant as primary antibody
T1 construct: mature; Endogenous protein on Western blot or in solution (IP); also called ApoE full-length protein
From the text: Selectivity evaluation and human target binding in Alzheimer's disease brain extracts by Western blot analysis: The Western blot analysis described below was used to evaluate selective binding of monoclonal antibodies with affinity for the N-terminal neo-epitope of ApoE fragments […], starting at G200, without binding to ApoE full-length protein, in human brain extracts from an Alzheimer's disease patient. Fresh frozen brain tissue from the Alzheimer's disease patient was homogenized in RIPA 2% SDS extraction buffer, followed by centrifugation at 16000×g for 1 h. The subsequent supernatant was subjected to standard protein concentration determination.
RIPA 2% SDS brain extract containing 80 μg total protein was mixed with 2×Laemmli sample buffer, boiled for 5 min at 95° C. and loaded onto SDS-PAGE gels (Bolt™ 12% Bis-Tris Plus 10 well, Thermo Fisher, cat. no. NW00120BOX). Gels were run for 30-40 min at 180 V, after which proteins were transferred from the gels to nitrocellulose membranes using the Trans-Blot® Turbo™ system (Bio-Rad). Membranes were blocked in Odyssey® blocking buffer for 1 h and incubated over night at room temperature with hybridoma supernatant diluted 1:1 in Odyssey® blocking buffer with 0.1% TWEEN®-20. Membranes were washed and incubated for 1 h at room temperature with the detection antibody anti-mouse-800CW (LI-COR, cat. no. 925-32210) diluted 1:25000 in Odyssey® blocking buffer with 0.1% TWEEN®-20. Membranes were washed and images acquired using Odyssey® FC (LI-COR).

[2] = biological target: T2, G200 N-terminal neo-epitope peptide GQPLQE-Acp-C (SEQ ID NO:50) conjugated to BSA (human, not fully specified (residue 8); printed as GQPLQE-Acp-C; also: C-terminal Cys conjugated to BSA carrier); assay: direct ELISA, target coated at 1 ug/ml, supernatant in 3-fold dilutions from 1000 ng/ml, OD 450 nm
T2 construct: also called G200-BSA peptide; G200-peptide
T2 peptide: GQPLQE[Ahx]C
Procedure: (§1) Selectivity evaluation by direct ELISA: The direct ELISA described below was used to evaluate the binding selectivity of generated monoclonal anti-ApoE antibodies with affinity for the N-terminal neo-epitope of C-terminal ApoE fragments starting at amino acid G200.
(§2) The screening was performed according to standard ELISA protocols. Briefly, 1 μg/ml solutions of N-terminal neo-epitope peptide (SEQ ID NO:50) conjugated to BSA, the recombinant C-terminal ApoE fragment G200-HIS (SEQ ID NO:48) and recombinant full-length ApoE4 (SEQ ID NO:45; Abcam; cat. no. ab50243) were prepared by dilution in PBS. 50 μl/well were added to an ELISA half-area 96 well microtiter plate. Then, the plate was sealed with adhesive sealer and incubated over night at 4° C. The plates were blocked with 150 μl/well of protein-free blocking solution (Pierce) for 1 h at room temperature with shake (600-900 rpm). The plates were washed four times with washing buffer containing 0.28 mM NaH₂PO₄, 2.5 mM Na₂HPO₄, 150 mM NaCl, 0.1% TWEEN®-20 and 0.0075% Kathon CG. Antibodies of interest were serially diluted 3-fold with a starting dilution at 1 μg/ml (mixed 1:1 with dilution buffer: PBS with 0.1% BSA and 0.05% TWEEN®-20) and incubated for 2 h at room temperature. The plates were washed four times as before. […] After another wash (as above), 50 μl/well of K-Blue® aqueous substrate (Neogen) were added, and the reaction was stopped after 5-15 min with 50 μl/well of 0.5 M […]. The optical density at 450 nm was read using an ELISA reader (Tecan). The optical density was plotted against the antibody concentration to generate concentration-response curves (FIG. 14).

[3] = biological target: T3, recombinant C-terminal ApoE fragment G200-HIS (ApoE-G200-H299-10xHIS) (human, UniProt P02649 218-317); assay: as above
T3 construct: also called G200-HIS fragment
Procedure: as §1, §2

[4] = biological target: T4, recombinant full-length ApoE4 (aa 1-299; SEQ ID NO:45; Abcam cat. no. ab50243) (human, UniProt P02649 19-317); assay: as above
T4 construct: Bought protein; also called recombinant ApoE4 full-length protein
Procedure: as §1, §2

[5] = biological target: T5, L198 N-terminal neo-epitope peptide LAGQPL-Acp-C (SEQ ID NO:52) conjugated to BSA (human, not fully specified (residue 8); printed as LAGQPL-Acp-C; also: C-terminal Cys conjugated to BSA carrier); assay: direct ELISA, L198-BSA peptide coated at 1 µg/ml
T5 construct: BSA carrier; also called L198-BSA peptide
T5 peptide: LAGQPL[Ahx]C
Procedure: (§3) Selectivity evaluation of purified monoclonal antibodies by direct ELISA: The direct ELISA described below was used to evaluate the binding selectivity of the purified monoclonal antibodies produced in Example 14.
(§4) The screening was performed according to standard ELISA protocols. Briefly, 1 μg/ml solutions of BSA-conjugated neo-epitope peptides and negative control peptide, and 0.1 μM recombinant C-terminal ApoE fragment and full-length ApoE (Abcam, cat. no. ab50243) were prepared by dilution in PBS. 50 μl/well were added to an ELISA half-area 96 well microtiter plate, and the plate was sealed with adhesive sealer and incubated over night at 4° C. After discarding the solution, the plates were blocked with 150 μl/well of protein-free blocking solution (Pierce) for 1 h at room temperature with shake (600-900 rpm). The plates were washed four times with washing buffer containing 0.28 mM NaH₂PO₄, 2.5 mM Na₂HPO₄, 150 mM NaCl, 0.1% TWEEN®-20 and 0.0075% Kathon CG. Purified monoclonal antibodies of interest were 3-fold serially diluted with a starting dilution at 3 μg/ml (mixed 1:2 with dilution buffer (PBS with 0.1% BSA and 0.05% TWEEN®-20)). An anti-ApoE C-terminal antibody was used as a reference antibody (ApoE E-8 mouse monoclonal, Santa Cruz Biotechnology, cat. no. sc-393302). 50 μl/well were added into the ELISA plates and incubated for 2 h at room temperature with shake (600-900 rpm). The plates were washed four times as described previously. […] After another wash (as described previously), 50 μl/well of K-Blue® aqueous substrate (Neogen) were added, and the reaction was stopped after 5-15 min with 50 μl/well of 0.5 M […]. The optical density at 450 nm was read using an ELISA reader (Tecan).

[6] = biological target: T6, recombinant C-terminal ApoE fragment L198-HIS (ApoE-L198-H299-10xHIS) (human, UniProt P02649 216-317); assay: direct ELISA, L198-HIS coated at 0.1 µM
T6 construct: also called L198-HIS fragment
Procedure: as §3, §4

T3 sequence (P02649 other isoform, or with tags, fused parts or gaps limits assumed): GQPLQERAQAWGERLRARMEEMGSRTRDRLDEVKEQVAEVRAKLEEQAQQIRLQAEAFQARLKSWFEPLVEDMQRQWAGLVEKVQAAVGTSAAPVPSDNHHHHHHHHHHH
T1 sequence (P02649 19-317): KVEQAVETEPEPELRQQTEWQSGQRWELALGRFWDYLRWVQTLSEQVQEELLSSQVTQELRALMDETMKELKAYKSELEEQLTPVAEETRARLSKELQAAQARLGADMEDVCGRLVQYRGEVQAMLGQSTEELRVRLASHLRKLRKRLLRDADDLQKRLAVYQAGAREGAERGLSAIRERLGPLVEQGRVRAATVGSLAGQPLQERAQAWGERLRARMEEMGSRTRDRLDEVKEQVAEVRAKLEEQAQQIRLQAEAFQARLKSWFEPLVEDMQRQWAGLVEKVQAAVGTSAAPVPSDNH
T4 sequence (P02649 19-317 C130R limits assumed): as the sequence (P02649 19-317) above, with C112R counted along it
T6 sequence (P02649 other isoform, or with tags, fused parts or gaps limits assumed): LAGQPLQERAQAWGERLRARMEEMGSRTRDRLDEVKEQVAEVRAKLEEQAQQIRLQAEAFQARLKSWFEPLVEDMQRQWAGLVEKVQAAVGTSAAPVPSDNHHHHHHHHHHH

EC50 (read off the curve) [2]: ~20 ng/mL
EC50 (read off the curve) [3]: ~8 ng/mL
binding result [4]: no binding (tested: 1000 ng/ml)
B4: 7B10, hybridoma monoclonal antibody (unpurified supernatant) (antibody, mouse IgG1, V domains shown)
VH: AVQLVESGGGLVKPGRSLKLSCAASGFTFSSYAMSWVRQFPDKRLDWVAEISSGGGSTNYLDTVTGRFTISRDNAKNTLYLEMNSLRSEDTAMYYCARQLVGTDYYGTDYWGQGTSVTVSS
VL: DVLMTQTPLSLPVSLGDQASISCRSSQNIVYSNGNTYLEWYLQKPGQSPKLLIYKVSNRFSGVPDRFSGSGSGTDFTLKISRVEAEDLGVYYCFQGSHVPYTFGGGTKLEIK
notes: also called 7610
binding result [1]: no binding (tested: supernatant diluted 1:1 (text))

EC50 (read off the curve) [3]: ~10 ng/mL
binding result [4]: no binding (tested: 1000 ng/ml)
B5: 23D5, hybridoma monoclonal antibody (unpurified supernatant) (antibody, mouse IgG1, V domains shown)
VH: EVQLVESGGGLVKPGGSLKLSCSASGFTFSRYAMSWVRQSPEKRLEWVAEINSGGSYSFYSDTVTGRFTISRDNAKNTLFLEMSSLRSEDTAIYYCARQLSGTDYYGTDYWGQGTSVTVSS
VL: B4 VL with L15H, N28S, I29L, V30L
binding result [1]: no binding (tested: supernatant diluted 1:1 (text))

EC50 [5]: 3.2 ng/mL
EC50 [6]: 3.6 ng/mL
B8: 15H11, monoclonal anti-L198 antibody (antibody, IgG1, V domains shown)
VH: EVKLEESGGGLVQPGGAMKLSCVASGITFSNYWMNWVRQCPEKGLEWVAQIRLKSDNYATHYAESVKGRFTISRDDSKSSVYLQMNTLRAEDTGIYYCTHHYYGSSGYVDVWGTGTTVTVSS
VL: DIVMTQSQKFMSTSVGDRVSVTCKASQNVGNNVAWYQKKPGQCPKGMILSASQRYSGVPDRFTGSGFGTEFTLIISNVQSEDLAEYFCHQYNSYPYTFGGGTKLERK

Further lines, the binder ahead of its results:

B1: 4E6, hybridoma monoclonal antibody (unpurified supernatant) (antibody, V domains shown)
VH: EVQLVESGGDLVKPGGSLKLSCAASGFTFSSYAMSWVRQSPEKRLEWVAEISGSGSRDHYTDSVTGRFTVSRDNAKNTLYLEMSSLRSEDTAIYYCARQLTGTDYYGTDYWGQGTSVTVSS
VL: B4 VL with T7I, N28S, K44R, V99L
binding result [1]: no binding (tested: supernatant diluted 1:1 (text))
EC50 (read off the curve) [2]: ~10 ng/mL
EC50 (read off the curve) [3]: ~10 ng/mL
binding result [4]: no binding (tested: 1000 ng/ml)

B2: 7C7, hybridoma monoclonal antibody (unpurified supernatant) (antibody, mouse IgG2b, V domains shown)
VH: EVQLVESGGGLVKPGGSLRLSCAASGFTFSSFAMSWVRQSPERRLEWVAEISRGGGYAFYSDTVTGRFTISRDNARNTLFLEMGSLRSEDTAMYYCSRQLTGTDYYAMDYWGQGTSVTVSS
VL: B4 VL with M4L, P12F, N28S, S32T, H98Q, I111L
binding result [1]: no binding (tested: supernatant diluted 1:1 (text))
binding result [4]: no binding (tested: 1000 ng/ml)

B3: 17G4, hybridoma monoclonal antibody (unpurified supernatant) (antibody, mouse IgG1, V domains shown)
VH: B5 VH with S101T
VL: B4 VL with L15H, N28S, I29L, V30L
binding result [1]: no binding (tested: supernatant diluted 1:1 (text))
EC50 (read off the curve) [3]: ~8 ng/mL
binding result [4]: no binding (tested: 1000 ng/ml)

B6: 28F2, hybridoma monoclonal antibody (unpurified supernatant) (antibody, mouse IgG1, V domains shown)
VH: QIQLVQSGPDLKKPGETVKISCKASGYTFTNYAMHWMKQAPGKALKWMGWINTYTGEPTFADDFKGRFAFSLETSASTAYLQINSLKNEDMATYFCAREGYYDRSHYFDYWGQGTTLTVSS
VL: B4 VL with Q27L, N28S, I29L, Y31H, S32G, N33D, F94L, V99I, Y101F, G105S
binding result [1]: no binding (tested: supernatant diluted 1:1 (text))
EC50 (read off the curve) [3]: ~5 ng/mL
binding result [4]: no binding (tested: 1000 ng/ml)

B7: 12B1, monoclonal anti-L198 antibody (antibody, IgG2c, V domains shown)
VH: B8 VH with A17S, N31K, K54R
VL: B8 VL with N31T, K38Q, I74T, H89Q
EC50 [5]: 15.2 ng/mL
EC50 [6]: 8.7 ng/mL
